The labels stand for the following.
B1: scFv G8-P1A03 (scFv, V domains shown)
VH: QVQLVQSGAEVKKPGASVKVSCKASGGTFSRSAITWVRQAPGQGLEWMGWINPNSGATNYAQKFQGRVTMTRDTSTSTVYMELSSLRSEDTAVYYCARDDYGDYVAYFQHWGQGTLVTVSS
VL: DIQMTQSPSSLSASVGDRVTITCRASQSITSYLNWYQQKPGKAPKLLIYDASNLETGVPSRFSGSGSGTDFTLTISSLQPEDFATYYCQQNYNSVTFGQGTKLEIK
notes: scFv
B2: scFv G8-P1A06 (scFv, V domains shown)
VH: QVQLVQSGAEVKKPGASVKVSCKASGYTFTNYYMHWVRQAPGQGLEWMGWMNPIGGGTGYAQKFQGRVTMTRDTSTSTVYMELSSLRSEDTAVYYCARVYDFWSVLSGFDIWGQGTLVTVSS
VL: DIQMTQSPSSLSASVGDRVTITCRASQAISNSLAWYQQKPGKAPKLLIYAASTLQSGVPSRFSGSGSGTDFTLTISSLQPEDFATYYCGQSYSTPPTFGQGTKLEIK
notes: scFv
B3: scFv G8-P1A04 (scFv, V domains shown)
VH: QVQLVQSGAEVKKPGASVKVSCKASGYPFIGQYLHWVRQAPGQGLEWMGIINPSGDSATYAQKFQGRVTMTRDTSTSTVYMELSSLRSEDTAVYYCARDLSYYYGMDVWGQGTTVTVSS
VL: DIQMTQSPSSLSASVGDRVTITCWASQGISSYLAWYQQKPGKAPKLLIYAASSLQSGVPSRFSGSGSGTDFTLTISSLQPEDFATYYCQQSYNTPWTFGPGTKVDIK
notes: scFv
B4: scFv G8-P1B03 (scFv, V domains shown)
VH: EVQLLESGGGLVQPGGSLRLSCAASGFTFSDYYMSWVRQAPGKGLEWVSGINWNGGSTGYADSVKGRFTISRDNSKNTLYLQMNSLRAEDTAVYYCARVEQGYDIYYYYYMDVWGKGTTVTVSS
VL: B3 VL with W24R, G28S, A34N, A50K, Q55E, N93S, T94A, W96Y
notes: scFv
B5: scFv G8-P1D02 (scFv, V domains shown)
VH: EVQLLESGGGLVQPGGSLRLSCAASGFTFSSYWMSWVRQAPGKGLEWVSSISGRGDNTYYADSVKGRFTISRDNSKNTLYLQMNSLRAEDTAVYYCARASGSGYYYYYGMDVWGQGTTVTVSS
VL: B3 VL with W24Q, G28D, S31N, A34N, N93S, T94A, W96Y, P100G, D105E
notes: scFv
B6: scFv G8-P1C11 (scFv, V domains shown)
VH: QVQLVQSGAEVKKPGASVKVSCKASGGTLSSYPINWVRQAPGQGLEWMGWISTYSGHADYAQKLQGRVTMTRDTSTSTVYMELSSLRSEDTAVYYCARSYDYGDYLNFDYWGQGTLVTVSS
VL: B3 VL with W24Q, G28D, S31N, A34N, N93S, T94I, W96P, P100G
notes: scFv
B7: scFv R3G10-P5A08 (scFv, V domains shown)
VH: QVQLVQSGAEVKKPGSSVKVSCKASGGTFNNFAISWVRQAPGQGLEWMGGIIPIFDATNYAQKFQGRVTFTADESTSTAYMELSSLRSEDTAVYYCARGEYSSGFFFVGWFDLWGRGTQVTVSS
VL: not shown
notes: scFv
B8: scFv R3G10-P4D04 (scFv, V domains shown)
VH: QVQLVQSGAEVKKPGASVKVSCKASGYTFTGYYVHWVRQAPGQGLEWMGIIAPSDGSTNYAQKFQGRVTMTRDTSTSTVYMELSSLRSEDTAVYYCARDPGGYMDVWGKGTTVTVSS
VL: B1 VL with T30S, N34A, N53K, N91S, N93G, S94V, V95P
notes: scFv
B9: scFv R3G10-P2C04 (scFv, V domains shown)
VH: QVQLVQSGAEVKKPGASVKVSCKASGGTFSNSIINWVRQAPGQGLEWMGWMNPNSGNTNYAQKFQGRVTMTRDTSTSTVYMELSSLRSEDTAVYYCAREQWPSYWYFDLWGRGTLVTVSS
VL: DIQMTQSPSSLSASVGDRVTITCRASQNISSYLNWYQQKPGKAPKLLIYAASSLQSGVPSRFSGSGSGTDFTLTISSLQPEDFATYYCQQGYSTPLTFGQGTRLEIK
notes: scFv
B10: scFv R3G10-P3E04 (scFv, V domains shown)
VH: QVQLVQSGAEVKKPGASVKVSCKASGNTFIGYYVHWVRQAPGQGLEWVGIINPNGGSISYAQKFQGRVTMTRDTSTSTVYMELSSLRSEDTAVYYCARGSGDPNYYYYYGLDVWGQGTTVTVSS
VL: DIQMTQSPSSLSASVGDRVTITCQASQDISNYLNWYQQKPGKAPKLLIYAASNLQSGVPSRFSGSGSGTDFTLTISSLQPEDFATYYCQQANSLPYTFGQGTKVEIK
notes: scFv
B11: scFv R3G10-P5C08 (scFv, V domains shown)
VH: QVQLVQSGAEVKKPGASVKVSCKASGYNFTGYYMHWVRQAPGQGLEWMGIIAPSDGSTNYAQKFQGRVTMTRDTSTSTVYMELSSLRSEDTAVYYCARETGDDAFDIWGQGTMVTVSS
VL: not shown
notes: scFv
B12: scFv R3G10-P1F06 (scFv, V domains shown)
VH: QVQLVQSGAEVKKPGASVKVSCKASGYTFIGYYMHWVRQAPGQGLEWMGMIGPSDGSTSYAQKFQGRVTMTRDTSTSTVYMELSSLRSEDTAVYYCARDSSGLDPWGQGTLVTVSS
VL: B10 VL with Q24R, D28S, A50K, N53S, Q55E, A91S, N92Y, S93I, L94I, V104L
notes: scFv
B13: scFv R3G10-P1E12 (scFv, V domains shown)
VH: B12 VH with T28I, I30T, D99E, S100D, S101D, G102S, L103M, P105V, Q108K, L111T
VL: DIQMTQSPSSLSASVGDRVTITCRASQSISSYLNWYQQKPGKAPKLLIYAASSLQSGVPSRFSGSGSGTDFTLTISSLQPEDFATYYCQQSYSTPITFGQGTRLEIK
notes: scFv
B14: scFv R3G10-P4E12 (scFv, V domains shown)
VH: B12 VH with I30T, K63R, D99E, S100E, S101D, L103M, P105V, L111T
VL: B2 VL with A28G, N31T, S32Y, A50D, T53S, G89Q, S91Y, T94Y, P96W, K103R
notes: scFv
B15: scFv R3G10-P4E07 (scFv, V domains shown)
VH: QVQLVQSGAEVKKPGSSVKVSCKASGYTFTGYYMHWVRQAPGQGLEWMGRISPSDGSTTYAPKFQGRVTITADESTSTAYMELSSLRSEDTAVYYCARDMGDAFDIWGQGTTVTVSS
VL: not shown
notes: scFv
B16: scFv R3G10-P1B07 (scFv, V domains shown)
VH: QVQLVQSGAEVKKPGASVKVSCKASGYTFTSYYMHWVRQAPGQGLEWMGIIHPGGGTTSYAQKFQGRVTMTRDTSTSTVYMELSSLRSEDTAVYYCARDKVYGDGFDPWGQGTLVTVSS
VL: DIQMTQSPSSLSASVGDRVTITCRASQSISRWLAWYQQKPGKAPKLLIFDASRLQSGVPSRFSGSGSGTDFTLTISSLQPEDFATYYCQQAEAFPYTFGQGTKVEIK
notes: scFv
B17: scFv R3G10-P2G11 (scFv, V domains shown)
VH: QVQLVQSGAEVKKPGASVKVSCKASGGTFSTHDINWVRQAPGQGLEWMGVINPSGGSAIYAQKFQGRVTMTRDTSTSTVYMELSSLRSEDTAVYYCARDRGYSYGYFDYWGQGTLVTVSS
VL: B10 VL with Q24R, N31R, N34A, A50D, Q55E, S56T, L94F, Y96R
notes: scFv
B18: scFv R3G10-P1H08 (scFv, V domains shown)
VH: QVQLVQSGAEVKKPGASVKVSCKASGVTFSTSAISWVRQAPGQGLEWMGWISPYNGNTDYAQMLQGRVTMTRDTSTSTVYMELSSLRSEDTAVYYCARDAHQYYDFWSGYYSGTYYYGMDVWGQGTTVTVSS
VL: B10 VL with Q24R, D28G, N34A, A50S, N92Y, L94F, Y96W
notes: scFv
B19: scFv R3G10-P1H01 (scFv, V domains shown)
VH: B12 VH with I30T, D99G, S100V, S101G, G102N, P105Y
VL: B10 VL with Q24R, D28S, N53S, Q89H, A91T, N92Y, L94T, Y96L
notes: scFv
B20: scFv R3G10-P1A07 (scFv, V domains shown)
VH: EVQLLESGGGLVKPGGSLRLSCAASGFTFSSYWMSWVRQAPGKGLEWVSGISARSGRTYYADSVKGRFTISRDDSKNTLYLQMNSLKTEDTAVYYCARDQDTIFGVVITWFDPWGQGTLVTVSS
VL: B2 VL with A28G, S32Y, T53S, S56G, G89Q, S91Y, Y92F, S93T, P96Y
notes: scFv
B21: scFv R3G10-P4C05 (scFv, V domains shown)
VH: B12 VH with I30T, M50I, S59T, D99A, S100E, S101N, L103M, P105V, L111T
VL: B3 VL with W24R, G28R, A34N, A50S, S53T, N93S, W96F
notes: scFv
B22: scFv R3G10-P4D10 (scFv, V domains shown)
VH: B12 VH with I30T, M34L, S100G, S101D, G102A, L103F, P105I, L111M
VL: B3 VL with W24R, Y32W, A50D, S53N, Q55E, S56T, N93S, W96L, P100G, D105E
notes: scFv
B23: scFv R3G10-P4A02 (scFv, V domains shown)
VH: QVQLVQSGAEVKKPGASVKVSCKASGYTLSYYYMHWVRQAPGQGLEWMGMIGPSDGSTSYAQRFQGRVTMTRDTSTGTVYMELSSLRSEDTAVYYCARDTGDHFDYWGQGTLVTVSS
VL: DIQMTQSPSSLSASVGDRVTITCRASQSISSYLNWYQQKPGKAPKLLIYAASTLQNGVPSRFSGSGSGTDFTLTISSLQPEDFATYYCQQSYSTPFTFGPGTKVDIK
notes: scFv
B24: scFv R3G10-P4G06 (scFv, V domains shown)
VH: B23 VH
VL: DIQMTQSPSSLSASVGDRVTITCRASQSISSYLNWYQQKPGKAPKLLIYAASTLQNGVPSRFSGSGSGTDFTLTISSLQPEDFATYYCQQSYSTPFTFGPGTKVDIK
notes: scFv; printed VH and VL equal those of R3G10-P4A02

Changes are numbered by the printed parent chain.

In the first assay the target is HLA-A*02:01_… (HLA-PEPTIDE target G8), soluble (human, enzymatically biotinylated (BirA) for screening and BLI). The assay can be described thus: scFv PPE ELISA.
B1: the “fold selective binding, target pHLA vs minipool of negative control pHLAs” value (shortened to “fold selective binding, target pHLA”) is not below 3 fold.

For B2, the “fold selective binding, target pHLA” value is not below 3 fold.

With B3, the “fold selective binding, target pHLA” value was not below 3 fold.

With B4, the “fold selective binding, target pHLA” value is not below 3 fold.

As to B5, the “fold selective binding, target pHLA” value is not below 3 fold.

On to B6, for which the “fold selective binding, target pHLA” value was not below 3 fold.

The target of another assay is HLA-A*01:01_… (HLA-PEPTIDE target G10), soluble (human, enzymatically biotinylated (BirA)). The assay can be described thus: scFv PPE ELISA.
With B7, the “fold selective binding, target pHLA” value was not below 3 fold.

In the case of B8, the “fold selective binding, target pHLA” value is not below 3 fold.

With B9, the “fold selective binding, target pHLA” value was not below 3 fold.

B10: the “fold selective binding, target pHLA” value is not below 3 fold.

Turning to B11, the “fold selective binding, target pHLA” value was not below 3 fold.

On to B12, for which the “fold selective binding, target pHLA” value was not below 3 fold.

Consider B13, for which the “fold selective binding, target pHLA” value was not below 3 fold.

On to B14, for which the “fold selective binding, target pHLA” value is not below 3 fold.

For B15, the “fold selective binding, target pHLA” value was not below 3 fold.

Regarding B16, the “fold selective binding, target pHLA” value is not below 3 fold.

On to B17, for which the “fold selective binding, target pHLA” value was not below 3 fold.

As for B18, the “fold selective binding, target pHLA” value is not below 3 fold.

B19: the “fold selective binding, target pHLA” value is not below 3 fold.

Take B20: the “fold selective binding, target pHLA” value is not below 3 fold.

With B21, the “fold selective binding, target pHLA” value is not below 3 fold.

For B22, the “fold selective binding, target pHLA” value is not below 3 fold.

With B23, the “fold selective binding, target pHLA” value was not below 3 fold.

Take B24: the “fold selective binding, target pHLA” value is not below 3 fold.

Source of the values: patent US20210061914A1 (published 2021).
